Experimental data: patent US20180306789A1 (published 2018)

Experiments:
[1] = target: T1, DDB1 and CUL4 associated factor 4-like 2 (DCAF4L2); peptide DCAF4L2-001 peptide on HLA-A*02:01 (human); assay: multimer staining
T1 peptide: ILQDGQFLV

[2] = target: T2, KCM-001 (peptide code; source protein not spelled out) peptide on HLA-A*02:01 (human); assay: cytokine release
T2 peptide: TLQNSQFLL

[3] = target: T3, WRN-002 (peptide code; source protein not spelled out) peptide on HLA-A*02:01 (human); assay: cytokine release
T3 peptide: ILQDLQPFL

[4] = target: T4, MUC-009 (peptide code; source protein not spelled out) peptide on HLA-A*02:01 (human); assay: cytokine release
T4 peptide: ILQEGTFKA

[5] = target: T5, GSTA4-001 (peptide code; source protein not spelled out) peptide on HLA-A*02:01 (human); assay: cytokine release
T5 peptide: KLQDGNHLL

[6] = target: T6, GRB14-002 (peptide code; source protein not spelled out) peptide on HLA-A*02:01 (human); assay: cytokine release
T6 peptide: GLVDGVFLV

[7] = target: T7, AHR-002 (peptide code; source protein not spelled out) peptide on HLA-A*02:01 (human); assay: cytokine release
T7 peptide: NLQEGEFLL

[8] = target: T8, PFN1-001 (peptide code; source protein not spelled out) peptide on HLA-A*02:01 (human); assay: cytokine release
T8 peptide: LLQDGEFSM

[9] = target: T9, SNR-004 (peptide code; source protein not spelled out) peptide on HLA-A*02:01 (human); assay: cytokine release
T9 peptide: ILQDGRIFI

[10] = target: T10, VPS39-001 (peptide code; source protein not spelled out) peptide on HLA-A*02:01 (human); assay: cytokine release
T10 peptide: LLQDKQFEL

[11] = target: T11, VPS51-001 (peptide code; source protein not spelled out) peptide on HLA-A*02:01 (human); assay: cytokine release
T11 peptide: TLTDEQFLV

B1: R36P3F9 (TCR, V domains shown)
Valpha: SQQGEEDPQALSIQEGENATMNCSYKTSINNLQWYRQNSGRGLVHLILIRSNEREKHSGRLRVTLDTSKKSSSLLITASRAADTASYFCATVSNYQLIWGAGTKLIIKP
Vbeta: EAQVTQNPRYLITVTGKKLTVTCSQNMNHEYMSWYRQDPGLGLRQIYYSMNVEVTDKGDVPEGYKVSRKEKRNFPLILESPSPNQTSLYFCASSSTSGGLSGETQYFGPGTRLLVL
B1: recognises [1]; no recognition [2]; no recognition [3]. B1: no recognition [4]; no recognition [5]; no recognition [6]. B1: no recognition [7]; no recognition [8]; no recognition [9]. B1: no recognition [10]; no recognition [11].

B2: R52P2G11 (TCR, V domains shown)
Valpha: KNQVEQSPQSLIILEGKNCTLQCNYTVSPFSNLRWYKQDTGRGPVSLTIMTFSENTKSNGRYTATLDADTKQSSLHITASQLSDSASYICVVSAYGKLQFGAGTQVVVTP
Vbeta: DAGVIQSPRHEVTEMGQEVTLRCKPISGHNSLFWYRQTMMRGLELLIYFNNNVPIDDSGMPEDRFSAKMPNASFSTLKIQPSEPRDSAVYFCASSLGSPDGNQPQHFGDGTRLSIL
B2: recognises [1]; no recognition [2]; no recognition [3]. B2: no recognition [4]; no recognition [5]; no recognition [6]. B2: no recognition [7]; no recognition [8]; no recognition [9]. B2: no recognition [10]; no recognition [11].

B3: R53P2A9 (TCR, V domains shown)
Valpha: AQTVTQSQPEMSVQEAETVTLSCTYDTSESDYYLFWYKQPPSRQMILVIRQEAYKQQNATENRFSVNFQKAAKSFSLKISDSQLGDAAMYFCAYNSYAGGTSYGKLTFGQGTILTVHP
Vbeta: DAGVTQSPTHLIKTRGQQVTLRCSPISGHKSVSWYQQVLGQGPQFIFQYYEKEERGRGNFPDRFSARQFPNYSSELNVNALLLGDSALYLCASSLDGTSEQYFGPGTRLTVT
B3: recognises [1]; no recognition [2]; no recognition [3]. B3: no recognition [4]; no recognition [5]; no recognition [6]. B3: no recognition [7]; no recognition [8]; no recognition [9]. B3: no recognition [10]; no recognition [11].
